Laboratory results from patent US20240400703A1 (Genmab, published 2024).

Target: T1, mouse OX40 expressed on ExpiCHO-S cells (mouse, UniProt P47741 20-272)
T1 construct: full-length entry; also called OX40mm; wild-type mouse OX40
T1 sequence: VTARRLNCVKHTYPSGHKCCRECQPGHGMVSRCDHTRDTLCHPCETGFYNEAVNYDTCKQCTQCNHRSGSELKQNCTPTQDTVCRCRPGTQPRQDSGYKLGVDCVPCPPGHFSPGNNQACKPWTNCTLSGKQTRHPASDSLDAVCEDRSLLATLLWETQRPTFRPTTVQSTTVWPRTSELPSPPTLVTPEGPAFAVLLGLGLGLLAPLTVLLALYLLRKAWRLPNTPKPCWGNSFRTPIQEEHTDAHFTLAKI
Assay: not described (data not shown)

binding result: no binding
B1: IgG1-CD134-003-FEAL (antibody)
heavy: EQLKETGGGLVQPGGSLTLSCKASGFDFSSGYMSWVRQAPGKGLEWIGYIDPVFGSTYYASWVNGRFAISSHNAQNTLYLQLNSLTAADTATYFCARDLRAFYSGWGGINLWGPGTLVTVSSASTKGPSVFPLAPSSKSTSGGTAALGCLVKDYFPEPVTVSWNSGALTSGVHTFPAVLQSSGLYSLSSVVTVPSSSLGTQTYICNVNHKPSNTKVDKRVEPKSCDKTHTCPPCPAPEFEGGPSVFLFPPKPKDTLMISRTPEVTCVVVAVSHEDPEVKFNWYVDGVEVHNAKTKPREEQYNSTYRVVSVLTVLHQDWLNGKEYKCKVSNKALPAPIEKTISKAKGQPREPQVYTLPPSREEMTKNQVSLTCLVKGFYPSDIAVEWESNGQPENNYKTTPPVLDSDGSFLLYSKLTVDKSRWQQGNVFSCSVMHEALHNHYTQKSLSLSPG
light: AAVLTQTPSPVSAAVGGTVTIKCQSSQIVVNNNFLSWYQQKPGQPPKLLIYDASNLASGVPDRFSGSGSGTQFTLTISGVQSDDAATYYCLGGYDDDAENAFGGGTEVVVQRTVAAPSVFIFPPSDEQLKSGTASVVCLLNNFYPREAKVQWKVDNALQSGNSQESVTEQDSKDSTYSLSSTLTLSKADYEKHKVYACEVTHQGLSSPVTKSFNRGEC
notes: also called IgG1-CD134-003-L234F-L235E-D265A-F405L
